From patent publication US12202861B2, “Inducible, tunable, and multiplex human gene regulation using CRISPR-Cpf1” (The General Hospital Corporation, priority 2017, dated 2025)

How the values were obtained:
Format in all cases: cell-based, human
HBB [1] = assay: RT-qPCR activation of HBB in U2OS cells; details: MST crRNAs and single crRNAs
Source text: (A) Schematic of an expression cassette designed to express multiple gRNAs encoded on a single transcript. The arrows indicate cleavage sites being processed by the RNase activity of dLbCpf1. (B) Schematic illustrating multiplex expression of three crRNAs each targeted to a different endogenous gene promoter in a single cell. (C) Simultaneous activation of three endogenous human genes using crRNAs expressed from a multiplex transcript or from individual transcripts with dLbCpf1-VPR direct fusions (left panel), dLbCpf1-DmrA(×4) and DmrC-VPR fusions (middle panel), and dLbCpf1-DmrA(×4) and DmrC-p65 fusions (right panel). Transcripts were measured in HEK293 cells using RT-qPCR with relative mRNA expression calculated by comparison to the control sample in which no crRNA is expressed. […] RNA expression was measured by RT-qPCR and relative expression shown was calculated by comparison to a control sample in which no crRNA is expressed. […] Transcripts were measured in HEK293 cells using RT-qPCR with relative mRNA expression calculated by comparison to the control sample in which no crRNA is expressed. […] Transcripts were measured in HEK293 cells using RT-qPCR with relative mRNA expression calculated by comparison to the control sample in which no crRNA is expressed. […] Cells were collected at various time points and relative mRNA expression levels were measured by RT-qPCR compared to a negative control. […]

NPY1R = assay: RT-qPCR activation of endogenous NPY1R gene promoter in HEK293 cells; details: single crRNA
Protocol: (§1) FIGS. 1A-1E. Targeted human endogenous gene regulation using individual crRNAs with dLbCpf1-based activators • (A) Schematic showing direct dLbCpf1-VPR and dLbCpf-p65 activator fusion proteins. • (B) Activities of dLbCpf1-p65 or dLbCpf1-VPR using single crRNAs at three endogenous human genes (HBB, AR, and NPY1R) in human HEK293 cells. Relative activation of the indicated gene promoters was measured by RT-qPCR. Three separate individual crRNAs were targeted within promoter sequence 1 kb upstream of the transcription start site for each gene. Relative mRNA expression is calculated by comparison to the control sample in which no crRNA is expressed. (C) Analysis of various crRNAs targeted to the human CD5 and CD22 promoters. 32 crRNAs (16 for each gene) were designed to target sites located within promoter sequences 1 kb upstream or 500 bps downstream of the TSS of each gene. Repetitive sequences were not targeted. After 72 hours post-transfection, cells were stained with fluorescently labeled antibody for CD5 or CD22 protein and fluorescent-positive cells were quantified by flow cytometry. Error bars represent s.e.m. for three biological replicates. […] (D) Schematic illustrating drug-inducible bi-partite dLbCpf1-based activator fusion proteins. dLbCpf1 is fused to one to four DmrA domains and VPR or p65 is fused to a DmrC domain. Because DmrA and DmrC interact only in the presence of an A/C-heterodimerizer drug (red diamond), the bi-partite activator is only reconstituted in the presence of the drug. (E) Activities of drug-inducible bi-partite dLbCpf1-based activators using single crRNAs at three endogenous human genes (HBB, AR, and NPY1R) in human HEK293 cells. Relative activation of the indicated gene promoters was measured by RT-qPCR. […] Data shown in (B) and (E) represent three biological independent replicates and error bars indicate standard deviation (SD) of three technical replicates.
(§2) (A) Schematic of an expression cassette designed to express multiple gRNAs encoded on a single transcript. The arrows indicate cleavage sites being processed by the RNase activity of dLbCpf1. (B) Schematic illustrating multiplex expression of three crRNAs each targeted to a different endogenous gene promoter in a single cell. (C) Simultaneous activation of three endogenous human genes using crRNAs expressed from a multiplex transcript or from individual transcripts with dLbCpf1-VPR direct fusions (left panel), dLbCpf1-DmrA(×4) and DmrC-VPR fusions (middle panel), and dLbCpf1-DmrA(×4) and DmrC-p65 fusions (right panel). Transcripts were measured in HEK293 cells using RT-qPCR with relative mRNA expression calculated by comparison to the control sample in which no crRNA is expressed. (D) Activities of MST crRNA with different dLbCpf1-based activators in human U20S cells. Graphs showing activation of three endogenous human genes with dLbCpf1-VPR direct fusions, dLbCpf1-DmrA(×4) and DmrC-p65 fusions, and dLbCpf1-DmrA(×4) and DmrC-VPR fusions and crRNAs expressed from a multiplex single transcript (MST) or from transcripts encoding a single crRNA. RNA expression was measured by RT-qPCR and relative expression shown was calculated by comparison to a control sample in which no crRNA is expressed. (E) Schematic illustrating multiplex expression of three crRNAs each targeted to the same endogenous gene promoter in the same cell. (F) Activities of direct dLbCpf1-p65 or dLbCpf1-VPR fusions with sets of three crRNAs expressed from a multiplex transcript or from individual transcripts on the HBB, AR, or NPY1R endogenous gene promoters. Transcripts were measured in HEK293 cells using RT-qPCR with relative mRNA expression calculated by comparison to the control sample in which no crRNA is expressed. (G) Activities of dLbCpf1-DmrA(×4) and DmrC-VPR fusions or with dLbCpf1-DmrA(×4) and DmrC-p65 fusions with sets of three crRNAs expressed from a multiplex transcript or from individual transcripts on the HBB, AR, or NPY1R endogenous gene promoters. […]

HBB [2] = assay: RT-qPCR activation of endogenous HBB gene promoter in HEK293 cells; details: single crRNA
Protocol: as §1, §2

AR = assay: RT-qPCR activation of endogenous AR gene promoter in HEK293 cells; details: single crRNA
Protocol: as §1
(A) Schematic of an expression cassette designed to express multiple gRNAs encoded on a single transcript. The arrows indicate cleavage sites being processed by the RNase activity of dLbCpf1. (B) Schematic illustrating multiplex expression of three crRNAs each targeted to a different endogenous gene promoter in a single cell. […] Transcripts were measured in HEK293 cells using RT-qPCR with relative mRNA expression calculated by comparison to the control sample in which no crRNA is expressed. […] RNA expression was measured by RT-qPCR and relative expression shown was calculated by comparison to a control sample in which no crRNA is expressed. […] Transcripts were measured in HEK293 cells using RT-qPCR with relative mRNA expression calculated by comparison to the control sample in which no crRNA is expressed. […]

[3] = bi-partite with dLbCpf1-DmrA fusions
[4] = bi-partite with dLbCpf1-DmrA fusions, A/C heterodimerizer
[5] = bi-partite, with dLbCpf1 fusions harboring two, three or four DmrA domains

B1: DmrC-p65: CAG-DmrC-NLS-FLAG-P65; DmrC dimerization domain fused to p65 activation domain (SEQ ID NO: 50) (protein)
chain: MGSRILWHEMWHEGLEEASRLYFGERNVKGMFEVLEPLHAMMERGPQTLKETSFNQAYGRDLMEAQEWCRKYMKSGNVKDLLQAWDLYYHVFRRISKGGGSPKKKRKVSSDYKDHDGDYKDHDIDYKDDDDKAAGGGGSGSEASGSGRADALDDFDLDMLGSDALDDFDLDMLGSDALDDFDLDMLGSDALDDFDLDMLINSRSSGSPKKKRKVGSQYLPDTDDRHRIEEKRKRTYETFKSIMKKSPFSGPTDPRPPPRRIAVPSRSSASVPKPAPQPYPFTSSLSTINYDEFPTMVFPSGQISQASALAPAPPQVLPQAPAPAPAPAMVSALAQAPAPVPVLAPGPPQAVAPPAPKPTQAGEGTLSEALLQLQFDDEDLGALLGNSTDPAVFTDLASVDNSEFQQLLNQGIPVAPHTTEPMLMEYPEAITRLVTGAQRPPDPAPAPLGAPGLPNGLLSGDEDFSSIADMDFSALLGSGSGSRDSREGMFLPKPEAGSAISDVFEGREVCQPKRIRPFHPPGSPWANRPLPASLAPTPTGPVHEPVGSLTPAPVPQPLDPAPAVTPEASHLLEDPDEETSQAVKALREMADTVIPQKEEAAICGQMDLSHPPPRGHLDELTTTLESMTEDLNLDSPLTPELNEILDTFLNDECLLHAMHISTGLSIFDTSLF
modifications: misc_feature 1..2016 MMW948: CAG-DmrC-NLS-FLAG-VPR
gene activation (relative RNA expression) (HBB [1]): even greater than in HEK293s
dependence of maximal activation on A/C heterodimerizer drug (NPY1R; [3]): dependent on the presence of A/C heterodimerizer drug
level of activation somewhat less than that obtained with DmrC-VPR (NPY1R; [3]): ~30%
fold activation of transcription (NPY1R; [4]): ~10 fold
activation of transcription (NPY1R; [5]): could robustly activate transcription
dependence of maximal activation on A/C heterodimerizer drug (HBB [2]; [3]): dependent on the presence of A/C heterodimerizer drug
level of activation somewhat less than that obtained with DmrC-VPR (HBB [2]; [3]): ~50%
fold activation of transcription (HBB [2]; [4]): ~20 fold
activation of transcription (HBB [2]; [5]): could robustly activate transcription
dependence of maximal activation on A/C heterodimerizer drug (AR; [3]): dependent on the presence of A/C heterodimerizer drug
fold activation of transcription (AR; [4]): ~25 fold
activation of transcription (AR; [5]): could robustly activate transcription
